Numbering of substitutions follows the chain as printed. Numbers in names are those of the source.
B1: E53 (Erythrobacter longus; F191Y) (protein)
chain: MTDTPFIRPDMKAFLEAIAAMAGPTLAEMTLEEARASYVALHGMADRPARELAVIRNLSCPGPAGDIPLRLYDARESREAGPVITFYHGGGFVIGDLDTHHNLCTEIAALMDLPVVAVDYRLAPEHPFPAAIEDCEAATRWVASSPSELGRTASGVIPIGDSAGGNATIVVSQLLGAKPADVPVVLQVPIYPLASDAVGSASLEAFAEGFVLTKASIEFFDTAYKADRADPRGFPILGDHTAAPPTIVATASLDPIRDSGRDYAKALVEAGRDVVYLEMEGVTHSFTNIRAAVPSTQGDLERIIAAMKMMLGTA
notes: full length, 314 residues; N-terminal His6-SUMO tag (pSMT3) removed with Ulp1; E. coli BL21(DE3); monomer
B2: E53 (Erythrobacter longus) (protein)
chain: B1 chain with Y191F
notes: as for B1
B3: E53 (Erythrobacter longus; I256L) (protein)
chain: B1 chain with Y191F, I256L
notes: as for B1
B4: E53 (Erythrobacter longus; V211A) (protein)
chain: B1 chain with Y191F, V211A
notes: as for B1
B5: E53 (Erythrobacter longus; S216A) (protein)
chain: B1 chain with Y191F, S216A
notes: as for B1
B6: E53 (Erythrobacter longus; N166A) (protein)
chain: B1 chain with N166A, Y191F
notes: as for B1
B7: E53 (Erythrobacter longus; A167L) (protein)
chain: B1 chain with A167L, Y191F
notes: as for B1

What was measured:
E53 [1] = target: T1, E53 (Erythrobacter longus, UniProt A0A074MDU6, I256L); test: X-ray crystal structure, substrate soak; assay type: binding; conditions: pH 6.5 crystals; active site
T1 construct: gene EH31_02760; full length, 314 residues; N-terminal His6-SUMO tag (pSMT3) removed with Ulp1; E. coli BL21(DE3); monomer

E53 [2] = target: T2, E53 (Erythrobacter longus, UniProt A0A074MDU6, S285G); test: X-ray crystal structure, substrate soak; assay type: binding; conditions: pH 6.5 crystals; active site
T2 construct: gene EH31_02760; full length, 314 residues; N-terminal His6-SUMO tag (pSMT3) removed with Ulp1; E. coli BL21(DE3); monomer

E53 [3] = target: T3, E53 (Erythrobacter longus, UniProt A0A074MDU6); test: X-ray crystal structure, substrate soak; assay type: binding; conditions: pH 6.5 crystals; active site
T3 construct: gene EH31_02760; full length, 314 residues; N-terminal His6-SUMO tag (pSMT3) removed with Ulp1; E. coli BL21(DE3); monomer

purified protein = substrate: CCCC(=O)Oc1ccc([N+](=O)[O-])cc1; test: purified protein; assay type: biochemical, Erythrobacter longus; conditions: Tris-HCl pH 9.0 (also pH 7.0), 40 °C, 0.05-4.00 mM substrate

T2 sequence (A0A074MDU6 entry or part of it S285G): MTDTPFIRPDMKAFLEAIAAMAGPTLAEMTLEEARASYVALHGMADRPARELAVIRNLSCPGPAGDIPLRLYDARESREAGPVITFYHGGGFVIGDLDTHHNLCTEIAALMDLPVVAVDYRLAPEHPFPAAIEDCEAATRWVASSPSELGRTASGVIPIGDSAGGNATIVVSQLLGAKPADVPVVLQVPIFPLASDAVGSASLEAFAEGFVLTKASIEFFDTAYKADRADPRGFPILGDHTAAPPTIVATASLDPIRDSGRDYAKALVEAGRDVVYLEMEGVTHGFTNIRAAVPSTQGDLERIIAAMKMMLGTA
T3 sequence (A0A074MDU6 entry or part of it): as the sequence (A0A074MDU6 entry or part of it S285G) above, with G285S counted along it
T1 sequence (A0A074MDU6 entry or part of it I256L): as the sequence (A0A074MDU6 entry or part of it S285G) above, with I256L, G285S counted along it

Molecule | Km (purified protein) [µM] | other results
CCCCCC(=O)Oc1ccc([N+](=O)[O-])cc1 [C6, p-NP hexanoate] |  | X-ray crystal structure, substrate soak (E53 [1]): observed in the crystal structures of E53, I256L, and S285G; X-ray crystal structure, substrate soak (E53 [2]): observed in the crystal structures of E53, I256L, and S285G; X-ray crystal structure, substrate soak (E53 [3]): observed in the crystal structures of E53, I256L, and S285G
B1 | 210 ± 20 | 
B2 | 330 ± 30 | 
B3 | 230 ± 20 | 
B4 | 520 ± 30 | 
B5 | 420 ± 30 | 
B6 | 460 ± 40 | 
B7 | 150 ± 10 | 

Source: PMC8767022, “Mechanism and Structural Insights Into a Novel Esterase, E53, Isolated From Erythrobacter longus” (Frontiers in Microbiology, 2022)
